Values quoted from earlier work, collected in paper PMC5209733, “U24 from Roseolovirus interacts strongly with Nedd4 WW Domains” (Scientific Reports, 2017).

What was measured:
Fyn SH3 = details: association with Fyn SH3
Text: One possible way in which U24 may be implicated in MS is through the mimicry of myelin basic protein (MBP) because the two proteins share a seven amino acid stretch that contains a PxxP motif (Fig. 1a). This segment is essential for MBP to participate in Fyn-mediated signalling pathways by a direct but non-canonical association with the Fyn-SH3 domain[11]. Disruption of these signalling pathways has a large impact on oligodendrocyte differentiation and maturation, processes that are perturbed in MS patients. Within this PxxP motif and just before it are two threonine residues (T95 and T98), wh ...

Nedd4-WW1 domain = details: found previously
Description: In order to compare with previously reported results, experiments were carried out on four relevant WW domains: the second and the third WW domain of rat Nedd4 (rNedd4-WW2 and rNedd4-WW3/4, where WW3/4 is a homologue of the fourth WW domain in human), and the pair of third WW domains from human Nedd4 (hNedd4-WW3* and hNedd4L-WW3*). The WW3 domains are indicated with a star because this type of WW domain is missing in rat and mouse Nedd4[36][37]. Nedd4-WW1 domain was not used as it was found previously not to bind U24. The WW domains mentioned above were fused to the C-terminus of GST prote ...

[1] = system: transferrin receptor (TfR)
Text: (§1) Within the proline rich region of U24 is a PY motif that is conserved in both HHV-6A and HHV-7 (Fig. 1a). […] However, the exact mechanism by which this occurs is unknown.

[2] = system: TCR/CD3ε receptors in T-cells; details: PY motif responsible for down-regulation
Text: as §1

[3] = system: human Nedd4 family E3 ubiquitin ligases: Nedd4-1, Nedd4-2, AIP4, Smurf1, Smurf2, WWP1, and WWP2; details: pull-down assays
Text: However, precise binding affinities are hard to extract from such results. […] We have focussed our studies on human Nedd4 WW domains (hNedd4 and hNedd4L, Fig. 1b) given their relevance in the CNS, noted above. As controls, we have u ...

Molecule | Kd (Fyn SH3) [µM] | binding to Nedd4-WW1 (Nedd4-WW1 domain) | modulation of transferrin receptor [1] | recycling of TCR/CD3ε receptors to the cell surface [2] | binding to Nedd4 family E3 ubiquitin ligases [3]
MBP: myelin basic protein (protein, UniProt P02686 1-304, looked up) Myelin basic protein: MGNHAGKRELNAEKASTNSETNRGESEKKRNLGELSRTTSEDNEVFGEADANQNNGTSSQDTAVTDSKRTADPKNAWQDAHPADPGSRPHLIRLFSRDAPGREDNTFKDRPSESDELQTIQEDSAATSESLDVMASQKRPSQRHGSKYLATASTMDHARHGFLPRHRDTGILDSIGRFFGGDRGAPKRGSGKDSHHPARTAHYGSLPQKSHGRTQDENPVVHFFKNIVTPRTPPPSQGKGRGLSLSRFSWGAEGQRPGFGYGGRASDYKSAHKGFKGVDAQGTLSKIFKLGGRDSRSGSPMARR | 4 to 8 |  |  |  | 
U24: putative tail-anchored membrane protein that is unique to roseoloviruses (protein) MDPPRTPPPSYSEVLMMDVMCGQVSPHVINDTSFVECIPPPQSRPAWNLWNNRRKTFSFLVLTGLAIAMILFIVFVLYVFHVNRQRR |  | not to bind | down-modulate the transferrin receptor | blocked from recycling back to the cell surface | can bind to most of the seven human Nedd4 family E3 ubiquitin ligases
